Results on 39 sequences are retold here after the supplement of paper PMC9732359.

± gives the uncertainty stated by the source.

This data set in a line: protein stability index of a GFP-peptide fusion (yeast GPS) (PSI 1-4); higher = more stable; sorted into four equal gates, so the index is relative within each strain. The procedure, abridged:
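Yeast carrying a pooled library were grown to mid-log phase in leucine-free medium. Each library plasmid expresses Cherry and has a tiled 17-residue yeast protein peptide fused downstream of GFP. Cells were sorted into four equal gates by GFP/Cherry ratio, and plasmids from each gate were PCR-amplified, Illumina-sequenced and assigned to strains by barcode. Summing, across gates, the read frequency times the gate number gave each peptide's protein stability index.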

Sequence NYASVYPVVEVERGRVG [RRP43] yielded a protein stability index (doa10∆) of 3.48 ± 0.14, a protein stability index (pdr5∆) of 3.57 ± 0.11, a protein stability index (san1∆) of 3.43 ± 0.093 and a protein stability index (ubr1∆) of 3.42 ± 0.056.
As for HDIAYSKDGLPNKVKTE [RRP6], the protein stability index came to 2.74 ± 0.14 (doa10∆), 2.51 ± 0.23 (pdr5∆), 2.85 ± 0.18 (san1∆) and 3.2 ± 0.29 (ubr1∆).
For GPENALNVYHYFGENSS [YJL039C/NUP192], in that order: 2.05 ± 0.032, 2.05 ± 0.042, 2.06 ± 0.053 and 2.65 ± 0.031.
The matching figures for VSKMEKAEKTLKSTKHS [SMC4]: 2.69 ± 0.052, 2.42 ± 0.044, 2.33 ± 0.042 and 2.83 ± 0.031.
The matching figures for LMYSITFHHHGRQTVLI [SRB2]: 3 ± 0.07, 3.18 ± 0.071, 3.18 ± 0.06 and 3.12 ± 0.039.
For the sequence AEKFVPIDIFQIIRRVK [SIR3], the protein stability index was 1.57 ± 0.28 (doa10∆), 1.46 ± 0.15 (pdr5∆) and 1.16 ± 0.2 (ubr1∆).
For the sequence QKEQNVNNRDSEKGFSK [YCS4], the protein stability index is, setting by setting: (doa10∆) 2.91 ± 0.071; (pdr5∆) 3.11 ± 0.063; (san1∆) 2.41 ± 0.061; (ubr1∆) 2.97 ± 0.036.
For GDLLNAEVQSLFQDGSA [RRP4], in that order: 2.18 ± 0.096, 2.74 ± 0.13, 2.94 ± 0.068 and 2.37 ± 0.096.
The matching figures for SAVKRLLHVAVSDSNDD [RPN2]: 2.39 ± 0.11, 3.06 ± 0.071, 2.56 ± 0.083 and 2.69 ± 0.063.
For EETYEEKPQFKDGETTD [RPO26], in that order: 3.24 ± 0.23, 2.98 ± 0.28, 3.47 ± 0.19 and 3.34 ± 0.14.
As to TPFSFGTANNNSNTTNQ [YJL041W/NSP1], the protein stability index was 3.25 ± 0.054 (doa10∆), 3.21 ± 0.045 (pdr5∆), 3.13 ± 0.035 (san1∆) and 3.09 ± 0.041 (ubr1∆).
The matching figures for KNDTKILVLALEDLKDV [PRP8]: 1.6 ± 0.1, 1.96 ± 0.099, 1.55 ± 0.11 and 1.73 ± 0.055.
The matching figures for NAGTNDNSFNELTDNMS [MCD1]: 3.01 ± 0.082, 3.13 ± 0.076, 3.15 ± 0.042 and 3.3 ± 0.05.
Sequence DHHPEGLSAREAVKQAA [PRE10] yielded a protein stability index (doa10∆) of 3.02 ± 0.095, a protein stability index (pdr5∆) of 2.53 ± 0.066, a protein stability index (san1∆) of 2.67 ± 0.082 and a protein stability index (ubr1∆) of 2.69 ± 0.049.
With SFIISSLDTLELESITE [NUT1], the protein stability index (doa10∆) was 1.74 ± 0.075, the protein stability index (pdr5∆) is 1.64 ± 0.042, the protein stability index (san1∆) was determined as 1.78 ± 0.083 and the protein stability index (ubr1∆) stood at 1.78 ± 0.04.
Regarding DVECIKAKSHFTNIISR [YJL039C/NUP192], the protein stability index reads like this: (doa10∆) 3.04 ± 0.092; (pdr5∆) 3.1 ± 0.098; (san1∆) 2.73 ± 0.078; (ubr1∆) 2.97 ± 0.056.
The matching figures for ASTVAKTAPIQESFVPN [YOR098C/NUP1]: 2.97 ± 0.16, 2.83 ± 0.11, 2.94 ± 0.3 and 3.21 ± 0.061.
As for VGKRVPIVEDRRVKQLD [SIR4], the protein stability index (ubr1∆) is 3.35 ± 0.26.
For LYGKRFFPYYVHTIIAG [PRE7], the protein stability index (doa10∆) is 1.15 ± 0.032, the protein stability index (pdr5∆) was determined as 1.23 ± 0.039, the protein stability index (san1∆) is 1.13 ± 0.11 and the protein stability index (ubr1∆) is 1.14 ± 0.041.
For TNLYKLKEERAIEPETF [PUP3], in that order: 3.16 ± 0.12, 2.97 ± 0.13, 3.45 ± 0.066 and 3.25 ± 0.097.
Regarding QNEMIDAIAVTKGHGFE [RPL3], the protein stability index reads like this: (doa10∆) 3.08 ± 0.11; (pdr5∆) 3.21 ± 0.1; (san1∆) 3.35 ± 0.1; (ubr1∆) 3.34 ± 0.076.
The matching figures for NIELHSLYTSREPRVVS [PUP1]: 2.56 ± 0.1, 3.1 ± 0.068, 3.22 ± 0.09 and 3.07 ± 0.078.
Turning to SDEVSRGIPRLSEDELR [SMC4], the protein stability index reads like this: (doa10∆) 3.43 ± 0.14; (pdr5∆) 3.69 ± 0.21; (san1∆) 3.39 ± 0.14; (ubr1∆) 3.58 ± 0.1.
For SLFSKIKTFFTQKDSAR [YAR002W/NUP60], in that order: 2.21 ± 0.091, 2.84 ± 0.083, 2.42 ± 0.09 and 2.68 ± 0.087.
For EGLIIDTDKLPIKNRTS [SIN4], in that order: 2.79 ± 0.11, 2.85 ± 0.086, 2.76 ± 0.074 and 2.94 ± 0.063.
In the case of LDDLVVLKKKNIQKKQP [RRP6], the protein stability index by setting is: (doa10∆) 1.44 ± 0.079; (pdr5∆) 1.38 ± 0.061; (san1∆) 2.08 ± 0.12; (ubr1∆) 2.34 ± 0.14.
For IQKGKFTLLDFKKQMQT [SRP54], in that order: 1.27 ± 0.13, 1.85 ± 0.22, 1.07 ± 0.21 and 1.7 ± 0.29.
The matching figures for ELGEQKCQELVTNIRRI [RRP46]: 2.09 ± 0.072, 1.81 ± 0.056, 1.55 ± 0.15 and 1.98 ± 0.071.
The matching figures for SFGTANTNGTNASANST [YOR098C/NUP1]: 3.04 ± 0.11, 3.02 ± 0.11, 2.75 ± 0.15 and 2.85 ± 0.12.
With KQLNSLRRSGQIANDPS [SMD1], the protein stability index is 2.56 ± 0.09 (doa10∆), 3.02 ± 0.14 (pdr5∆) and 2.91 ± 0.07 (ubr1∆).
AIGCIERSDLLPYLSDT [YJR042W/NUP85] showed a protein stability index (doa10∆) of 2.96 ± 0.095, a protein stability index (pdr5∆) of 2.96 ± 0.098, a protein stability index (san1∆) of 2.8 ± 0.075 and a protein stability index (ubr1∆) of 3.06 ± 0.13.
For EDPVTVEYLTRYVAGVQ [PRE6], in that order: 2.39 ± 0.058, 2.39 ± 0.07, 2.54 ± 0.051 and 2.54 ± 0.067.
For NFNASLQLTTNTEQGDS [SNM1], in that order: 2.02 ± 0.039, 2.3 ± 0.064, 2.49 ± 0.055 and 1.85 ± 0.071.
The matching figures for LTVSIKIALMNIPKPLN [RGR1]: 1.19 ± 0.044, 1.43 ± 0.057, 1.54 ± 0.059 and 1.66 ± 0.032.
For VNDRYQIPTPNNTVDPG [CSI1], the protein stability index reads like this: (doa10∆) 1.44 ± 0.059; (pdr5∆) 1.71 ± 0.075; (san1∆) 1.71 ± 0.13; (ubr1∆) 1.55 ± 0.048.
TPVVLATPIPEEVQQAQ [RPS5] registered a protein stability index (doa10∆) of 2.55 ± 0.099, a protein stability index (pdr5∆) of 2.43 ± 0.16, a protein stability index (san1∆) of 3.1 ± 0.1 and a protein stability index (ubr1∆) of 2.83 ± 0.13.
For QNISPVYSVDPLEKITD [PRP8], in that order: 2.94 ± 0.083, 2.9 ± 0.084, 2.86 ± 0.054 and 2.85 ± 0.079.
Where the note is “doa10∆”, THDGRTIRYPDPNIKVN [RPS4A] returned a protein stability index of 1.52 ± 0.13.
As to PNELSQILTVDPKTSLR [RPC82], the protein stability index is, setting by setting: (doa10∆) 2.2 ± 0.069; (pdr5∆) 1.91 ± 0.059; (san1∆) 2.33 ± 0.067; (ubr1∆) 2.45 ± 0.053.
